{"source": "patent US20230340152A1", "about": "(published 2023)", "assay_in_all_cases": "SPR (ProteOn), CD73 variant immobilized; 2:1 fit", "key": {"HDX_E2 CD73 chimera": {"molecular_target": "T1, HDX_E2 CD73 chimera (human; chicken, UniProt P21589 27-553)", "T1 construct": "also called KO_182-187", "T1 chain": "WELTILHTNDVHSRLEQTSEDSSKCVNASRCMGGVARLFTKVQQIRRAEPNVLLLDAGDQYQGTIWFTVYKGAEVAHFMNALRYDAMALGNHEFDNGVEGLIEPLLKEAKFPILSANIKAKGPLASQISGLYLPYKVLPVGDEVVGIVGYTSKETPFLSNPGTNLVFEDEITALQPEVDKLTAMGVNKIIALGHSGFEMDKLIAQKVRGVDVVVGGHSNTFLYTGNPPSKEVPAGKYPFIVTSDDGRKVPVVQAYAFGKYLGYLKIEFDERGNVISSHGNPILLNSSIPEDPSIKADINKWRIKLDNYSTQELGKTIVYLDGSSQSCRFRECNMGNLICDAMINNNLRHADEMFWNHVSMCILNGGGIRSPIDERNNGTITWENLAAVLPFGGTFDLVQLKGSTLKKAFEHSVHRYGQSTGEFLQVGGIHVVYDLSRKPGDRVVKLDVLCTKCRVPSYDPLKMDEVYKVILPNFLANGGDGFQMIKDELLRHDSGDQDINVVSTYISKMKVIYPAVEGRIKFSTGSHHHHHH", "experimental": "(§1) Binding of MEDI9447 to wild-type and mutant CD73 proteins was measured by surface plasmon resonance (SPR) using a ProteOn instrument (BioRad). CD73 crude cell supernatant protein samples were diluted to 3 µg/ml in PBS, 0.005% Tween-20, pH 7.4 (BioRad) and immobilized to ~400 RU on a HTG tris-NTA sensor chip (BioRad) pre-activated with 10 mM NiSO₄, 10 mM MES, pH 6.0 (BioRad). An equivalently diluted crude cell supernatant sample from non-transfected cells was included as a reference channel control. Sensorgrams were recorded by flowing two-fold dilutions of MEDI9447 prepared in PBS, 0.005% Tween-20, pH 7.4, ranging from 5 nM to 0.31 nM. […] Antibody binding was measured at a flow rate of 100 µL/min with a 3 min association phase and 20 min dissociation phase. The sensor chip surface was regenerated between each run by an 800 s injection of 300 mM EDTA, pH 8.5 (BioRad) at a flow rate of 30 µL/min. Binding kinetics were analyzed using the ProteOn data analysis software. Double referencing was performed and, unless noted otherwise, a 1:1 Langmuir binding model was utilized to fit the data. Some CD73 variants containing mutations within the amino acid region 171-188 fit poorly to a 1:1 model (i.e., Chi² values >10% of Rmax). Where noted, these variants were fit with a heterogenous antigen (2:1) model. […] Due to the assay format (antigen immobilized) and the dimeric state of CD73, KD values may be exaggerated due to avidity effects. However, it is not anticipated that this impacts ranking of MEDI9447 binding to the different CD73 variants."}, "[1]": {"molecular_target": "T2, Human CD73 N185G, His-tagged (human, UniProt P21589 27-549)", "T2 sequence": "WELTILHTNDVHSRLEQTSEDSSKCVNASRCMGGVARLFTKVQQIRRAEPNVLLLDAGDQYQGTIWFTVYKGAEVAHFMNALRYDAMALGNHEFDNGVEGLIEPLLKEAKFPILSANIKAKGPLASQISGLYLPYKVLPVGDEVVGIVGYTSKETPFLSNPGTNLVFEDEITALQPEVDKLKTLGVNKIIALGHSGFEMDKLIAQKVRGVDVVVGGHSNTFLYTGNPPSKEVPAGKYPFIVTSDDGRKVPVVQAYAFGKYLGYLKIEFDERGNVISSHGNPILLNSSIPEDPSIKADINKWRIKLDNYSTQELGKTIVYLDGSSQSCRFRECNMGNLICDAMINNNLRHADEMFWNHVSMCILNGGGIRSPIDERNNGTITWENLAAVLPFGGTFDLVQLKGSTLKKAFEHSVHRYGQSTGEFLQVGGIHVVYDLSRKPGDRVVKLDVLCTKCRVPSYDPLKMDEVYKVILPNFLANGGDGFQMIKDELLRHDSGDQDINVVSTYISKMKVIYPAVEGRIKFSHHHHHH", "experimental": "as §1"}, "HDX_E1+E2 CD73 chimera": {"molecular_target": "T3, HDX_E1+E2 CD73 chimera (human; chicken, UniProt P21589 27-553)", "T3 chain": "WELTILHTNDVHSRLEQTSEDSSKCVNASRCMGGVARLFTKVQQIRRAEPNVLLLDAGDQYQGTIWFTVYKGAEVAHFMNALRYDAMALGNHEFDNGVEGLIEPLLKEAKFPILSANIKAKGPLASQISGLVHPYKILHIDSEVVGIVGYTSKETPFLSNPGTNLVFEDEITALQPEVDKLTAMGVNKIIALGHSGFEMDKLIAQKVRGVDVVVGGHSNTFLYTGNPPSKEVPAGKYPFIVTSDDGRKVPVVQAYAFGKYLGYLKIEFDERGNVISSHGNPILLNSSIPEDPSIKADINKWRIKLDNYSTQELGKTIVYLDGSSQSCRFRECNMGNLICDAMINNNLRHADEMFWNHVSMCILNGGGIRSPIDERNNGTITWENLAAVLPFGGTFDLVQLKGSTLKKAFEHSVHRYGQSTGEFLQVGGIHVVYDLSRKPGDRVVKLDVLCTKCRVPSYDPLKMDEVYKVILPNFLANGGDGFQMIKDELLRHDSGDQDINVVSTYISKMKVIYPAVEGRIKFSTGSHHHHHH", "experimental": "as §1"}}}
{"binder": "MEDI9447 (antibody, human IgG1, lambda, V domains shown, Human IgG1-TM (L234F, L235E, P331S), lambda light chain; also called clone 10.3 antibody; 73combo3) VH: EVQLLESGGGLVQPGGSLRLSCAASGFTFSSYAYSWVRQAPGKGLEWVSAISGSGGRTYYADSVKGRFTISRDNSKNTLYLQMNSLRAEDTAVYYCARLGYGRVDEWGRGTLVTVSS VL: QSVLTQPPSASGTPGQRVTISCSGSLSNIGRNPVNWYQQLPGTAPKLLIYLDNLRLSGVPDRFSGSKSGTSASLAISGLQSEDEADYYCATWDDSHPGWTFGGGTKLTVLG", "values": [{"measurement": "Kd", "setting": "HDX_E2 CD73 chimera", "result": 2.83, "unit": "nM"}, {"measurement": "koff", "setting": "HDX_E2 CD73 chimera", "result": 0.0162, "unit": "s⁻¹"}, {"measurement": "kon", "setting": "HDX_E2 CD73 chimera", "result": "5.73e+06", "unit": "M⁻¹ s⁻¹"}, {"measurement": "koff", "setting": "[1]", "result": 0.000245, "unit": "s⁻¹"}, {"measurement": "kon", "setting": "[1]", "result": "9.11e+06", "unit": "M⁻¹ s⁻¹"}, {"measurement": "Kd", "setting": "HDX_E1+E2 CD73 chimera", "result": 4.43, "unit": "nM"}, {"measurement": "koff", "setting": "HDX_E1+E2 CD73 chimera", "result": 0.0211, "unit": "s⁻¹"}, {"measurement": "kon", "setting": "HDX_E1+E2 CD73 chimera", "result": "4.76e+06", "unit": "M⁻¹ s⁻¹"}]}
